Experiment [1] addresses CwlDΔ25-His6 (C. difficile). Nature of the experiment: SEC.
For experiment [2], the target named is CwlDΔ25-His6 (C. difficile). Nature of the experiment: pull-down.
Experiment [3] has as its target CwlD R169Q-His6 (C. difficile). Put plainly: pull-down.
Experiment [4] addresses CwlD R169D-His6 (C. difficile). Nature of the experiment: pull-down.
In experiment [5] the target is CwlD_(E65A)-His6 (C. difficile). Put plainly: SEC.
Experiment [6] concerns the target CwlD_(H49A)-His6 (C. difficile). Nature of the experiment: SEC.
The target of experiment [7] is CwlD_(E199A)-His6 (C. difficile). Nature of the experiment: SEC.
Experiment [8] addresses GerSΔ22 (untagged) (C. difficile). Nature of the experiment: crystal structure.
Experiment [9] addresses GerSΔ22-His6 (C. difficile). Put plainly: SEC.
Experiment [10] concerns the target FLAG-tagged CwlD_(R169D) (C. difficile). Nature of the experiment: co-IP.
Experiment [11] addresses FLAG-tagged CwlD_(H49A) (C. difficile). Nature of the experiment: co-IP.
Experiment [12] concerns the target CwlD_(E199A)-FLAG (C. difficile). Put plainly: co-IP.

For the substance CwlDΔ25-His6 (domain or fragment), the stoichiometry N in experiment [1] worked out at 2.

Turning to “GerS D106A (untagged) (domain or fragment)”, in experiment [2], the reduction of GerS co-purification against the wild-type complex came to 90%.

On to “GerS D106R (untagged) (domain or fragment)”, for which the reduction of GerS co-purification against the wild-type complex in experiment [2] came out at 90%.

For GerSΔ22 (untagged) (domain or fragment), the reduction of GerS co-purification against the wild-type complex in experiment [3] and in experiment [4] was 90% in each case. Further, the stoichiometry N in experiment [5] worked out at 1; in experiment [6], 1; in experiment [1] it was 1; in experiment [7], 1; in experiment [8], 2.

GerSΔ22-His6 (domain or fragment) yielded a stoichiometry N in [9] of 2.

“cleaved form of GerS (untagged, in sporulating C. difficile) (natural protein)”: the fold reduction of GerS pulled down against wild-type FLAG-tagged CwlD in experiment [10] and in [11] was 5 fold each time. Moreover, the decrease of the interaction against the wild-type CwlD:GerS complex in [12] was determined as 40%.

These data come from article doi:10.1101/2021.06.21.449279.
